Some targets named below: HIV-1 AC10 Env (HIV-1); HIV-1 CAAN Env (HIV-1); HIV-1 CAP45 Env (HIV-1); HIV-1 DU156 Env (HIV-1); HIV-1 DU422 Env (HIV-1); HIV-1 Du172 Env (HIV-1); HIV-1 PVO.4 Env (HIV-1); HIV-1 TR0.11 Env (HIV-1); HIV-1 ZM214 Env (HIV-1); HIV-1 ZM233 Env (HIV-1); HIV-1 ZM249 Env (HIV-1).
Holding throughout (experiment): cell-based or functional assay
For assay [1], the target named is HIV-1 JR-FL Env E168K (HIV-1).
In assay [2] the target is HIV-1 REJ04541 Env (HIV-1).
The target in assay [3] is HIV-1 THRO.18 Env (HIV-1).
Assay [4] addresses MuLV envelope (control pseudovirus).
The target of assay [5] is HIV-1 Env of isolate 92UG001 (subtype D) (HIV-1).
Assay [6] concerns the target HIV-1 Env of isolate 93UG077 (subtype A) (HIV-1).
Assay [7] has as its target HIV-1 Env of isolate 98CN006 (subtype CRF08_BC) (HIV-1).
The target in assay [8] is HIV-1 Env of isolate MG RM-C-020 (subtype C) (HIV-1).
For assay [9], the target named is HIV-1 Env of isolate MGRM-Chronic-B-001 (subtype B) (HIV-1).
The target in assay [10] is HIV-1 Env of isolate MGRM-D-001 (subtype D) (HIV-1).

Chain of 1443_C16 (PG16) (TCN-116) (antibody) (VH): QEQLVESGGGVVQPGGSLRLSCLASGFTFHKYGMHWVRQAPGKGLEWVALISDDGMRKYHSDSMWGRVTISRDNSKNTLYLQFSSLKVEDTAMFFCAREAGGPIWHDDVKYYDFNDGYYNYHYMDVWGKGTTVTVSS
Chain of 1443_C16 (PG16) (TCN-116) (antibody) (VL): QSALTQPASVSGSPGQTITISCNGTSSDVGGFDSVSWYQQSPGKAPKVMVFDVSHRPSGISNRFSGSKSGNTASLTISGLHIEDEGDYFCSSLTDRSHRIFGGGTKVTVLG

In the case of 1443_C16 (PG16) (TCN-116) (antibody), the IC50, TZM-bl pseudovirus neutralization is less than 0.01 µg/mL with HIV-1 AC10 Env (HIV-1); 6.37 µg/mL with HIV-1 CAAN Env (HIV-1); less than 0.01 µg/mL with HIV-1 CAP45 Env (HIV-1); less than 0.01 µg/mL with HIV-1 DU156 Env (HIV-1); 0.59 µg/mL with HIV-1 DU422 Env (HIV-1); less than 0.01 µg/mL with HIV-1 Du172 Env (HIV-1). Further, the IC50, TZM-bl pseudovirus neutralization is 0.006 µg/mL in [1]; 12.3 µg/mL with HIV-1 PVO.4 Env (HIV-1); less than 0.01 µg/mL in [2]; 2.19 µg/mL in [3]; 3.61 µg/mL with HIV-1 TR0.11 Env (HIV-1); greater than 25 µg/mL in the assay with HIV-1 ZM214 Env (HIV-1). In addition, the IC50, TZM-bl pseudovirus neutralization was less than 0.01 µg/mL in the assay with HIV-1 ZM233 Env (HIV-1), less than 0.01 µg/mL with HIV-1 ZM249 Env (HIV-1) and greater than 25 µg/mL in assay [4].
PGV04 (antibody): the IC50 (neutralization) was 0.553 µg/mL in assay [5] and 1.32 µg/mL in [7]. The IC50 (pseudovirus neutralization) is 0.083 µg/mL in [6] and greater than 50 µg/mL in [10]. This substance also gave an IC50 (µg/mL), pseudovirus neutralization in assay [8] of 0.112 µg/mL. Also, in assay [9], the IC50 came to 0.048 µg/mL.
With VRC01 (antibody), the IC50 (neutralization) is 1.16 µg/mL in [5] and 0.644 µg/mL in [7]. Further, the IC50 (pseudovirus neutralization) in assay [6] was 0.097 µg/mL; in assay [10], greater than 50 µg/mL. Also, the IC50 in assay [8] came to 0.396 µg/mL; in assay [9], 0.066 µg/mL.

The values above are taken from patent publication US20160264649A1.
